{
  "source": "paper PMC6375885",
  "about": "“Specific Inhibition of Soluble γc Receptor Attenuates Collagen-Induced Arthritis by Modulating the Inflammatory T Cell Responses” (Frontiers in Immunology, 2019)",
  "proteins": {"B1": {"name": "soluble common gamma chain (sγc), wild type (natural protein)", "chain": "WSSKVLMSSANEDIKADLILTSTAPEHLSAPTLPLPEVQCFVFNIEYMNCTWNSSSEPQATNLTLHYRYKVSDNNTFQECSHYLFSKEITSGCQIQKEDIQLYQTFVVQLQDPQKPQRRAVQKLNLQNLVIPRAPENLTLSNLSESQLELRWKSRHIKERCLQYLVQYRSNRDRSWTELIVNHEPRFSLPSVDELKRYTFRVRSRYNPICGSSQQWSKWSQPVHWGSHTVEECLQFPPSRI", "notes": "signal peptide in the construct; common gamma chain (γc, IL-2Rγ), the part before the new C-terminal 9 a.a. of the alternatively spliced soluble form; not part of the membrane form of γc; Secreted; found as a disulfide-linked dimer and as a monomer in the supernatant; The reverse primer has no stop codon, so a C-terminal tag from the vector may follow (surmise; also called WT sγc; soluble γc; …)"}},
  "biological_target": "the molecule itself",
  "experiment": "immunoprecipitation, non-reducing SDS-PAGE and immunoblot; culture supernatant of transfected HEK293T cells precipitated with α-mouse IL-2Rγ antibody and protein A/G agarose; resolved under non-reducing conditions (DTT-); blotted with biotinylated α-mouse IL-2Rγ antibody; dimer and monomer bands",
  "data": [
    {"protein": "B1", "values": [
      {"measurement": "stoichiometry N", "result": 2}
    ]}
  ]
}
